Reference: publication PMC5165203, “The Cellular DNA Helicase ChlR1 Regulates Chromatin and Nuclear Matrix Attachment of the Human Papillomavirus 16 E2 Protein and High-Copy-Number Viral Genome Establishment” (Journal of Virology, 2016)

T1: His-ChlR1 63-214 (human, UniProt Q96FC9 63-214)
T1 construct: DNA helicase ChlR1, human, amino acids 63 to 214, cloned from pCMV-FLAG-ChlR1 into pHIS-TEV; Vector pHIS-TEV (NcoI/EcoRI); held on nickel resin by the hexahistidine tag in the pull-down; also called ChlR1 63-214 peptide
T1 sequence (looked up): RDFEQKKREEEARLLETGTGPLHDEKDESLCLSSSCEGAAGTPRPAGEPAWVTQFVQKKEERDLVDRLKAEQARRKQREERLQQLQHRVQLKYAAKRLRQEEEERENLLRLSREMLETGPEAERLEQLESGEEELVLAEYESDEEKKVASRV


The binders below were run against T1, His-ChlR1 63-214 (assay: pull-down; His-ChlR1 1-130 or His-ChlR1 63-214 immobilised on nickel resin, incubated with cleared whole-cell lysate of E2-transfected C33a cells for 16 h at 4°C; bound E2 by Western blotting, densitometry against input). Conditions: one partner purified.

Row | Binder | % E2 bound (in comparison to the E2^WT binding level) [%]
1 | HPV16 E2 D124A mutant (natural protein, E2 protein of human papillomavirus 16, from pCMV-16E2 by site-directed mutagenesis; source: C33a cells, transfected (mutated pCMV-16E2), in lysate) METLCQRLNVCQDKILTHYENDSTDLRDHIDYWKHMRLECAIYYKAREMGFKHINHQVVPTLAVSKNKALQAIELQLTLETIYNSQYSNEKWTLQDVSLEVYLTAPTGCIKKHGYTVEVQFDGAICNTMHYTNWTHIYICEEASVTVVEGQVDYYGLYYVHEGIRTYFVQFKDDAEKYSKNKVWEVHAGGQVILCPTSVFSSNEVSSPEIIRQHLANHPAATHTKAVALGTEETQTTIQRPRSEPDTGNPCHTTKLLHRDSVDSAPILTAFNSSHKGRINCNSNTTPIVHLKGDANTLKCLRYRFKKHCTLYTAVSSTWHWTGHNVKHKSAIVTLTYDSEWQRDQFLSQVKIPKTITVSTGFMSI | 38.8
2 | HPV16 E2 E118A mutant (natural protein, E2 protein of human papillomavirus 16, from pCMV-16E2 by site-directed mutagenesis; source: C33a cells, transfected (mutated pCMV-16E2), in lysate) METLCQRLNVCQDKILTHYENDSTDLRDHIDYWKHMRLECAIYYKAREMGFKHINHQVVPTLAVSKNKALQAIELQLTLETIYNSQYSNEKWTLQDVSLEVYLTAPTGCIKKHGYTVAVQFDGDICNTMHYTNWTHIYICEEASVTVVEGQVDYYGLYYVHEGIRTYFVQFKDDAEKYSKNKVWEVHAGGQVILCPTSVFSSNEVSSPEIIRQHLANHPAATHTKAVALGTEETQTTIQRPRSEPDTGNPCHTTKLLHRDSVDSAPILTAFNSSHKGRINCNSNTTPIVHLKGDANTLKCLRYRFKKHCTLYTAVSSTWHWTGHNVKHKSAIVTLTYDSEWQRDQFLSQVKIPKTITVSTGFMSI | 107
3 | HPV16 E2 D173A mutant (natural protein, E2 protein of human papillomavirus 16, from pCMV-16E2 by site-directed mutagenesis; source: C33a cells, transfected (mutated pCMV-16E2), in lysate) METLCQRLNVCQDKILTHYENDSTDLRDHIDYWKHMRLECAIYYKAREMGFKHINHQVVPTLAVSKNKALQAIELQLTLETIYNSQYSNEKWTLQDVSLEVYLTAPTGCIKKHGYTVEVQFDGDICNTMHYTNWTHIYICEEASVTVVEGQVDYYGLYYVHEGIRTYFVQFKADAEKYSKNKVWEVHAGGQVILCPTSVFSSNEVSSPEIIRQHLANHPAATHTKAVALGTEETQTTIQRPRSEPDTGNPCHTTKLLHRDSVDSAPILTAFNSSHKGRINCNSNTTPIVHLKGDANTLKCLRYRFKKHCTLYTAVSSTWHWTGHNVKHKSAIVTLTYDSEWQRDQFLSQVKIPKTITVSTGFMSI | 80.5
4 | HPV16 E2 H130R mutant (natural protein, E2 protein of human papillomavirus 16, from pCMV-16E2 by site-directed mutagenesis; source: C33a cells, transfected (mutated pCMV-16E2), in lysate) METLCQRLNVCQDKILTHYENDSTDLRDHIDYWKHMRLECAIYYKAREMGFKHINHQVVPTLAVSKNKALQAIELQLTLETIYNSQYSNEKWTLQDVSLEVYLTAPTGCIKKHGYTVEVQFDGDICNTMRYTNWTHIYICEEASVTVVEGQVDYYGLYYVHEGIRTYFVQFKDDAEKYSKNKVWEVHAGGQVILCPTSVFSSNEVSSPEIIRQHLANHPAATHTKAVALGTEETQTTIQRPRSEPDTGNPCHTTKLLHRDSVDSAPILTAFNSSHKGRINCNSNTTPIVHLKGDANTLKCLRYRFKKHCTLYTAVSSTWHWTGHNVKHKSAIVTLTYDSEWQRDQFLSQVKIPKTITVSTGFMSI | 45.2
5 | HPV16 E2 K177A mutant (natural protein, E2 protein of human papillomavirus 16, from pCMV-16E2 by site-directed mutagenesis; source: C33a cells, transfected (mutated pCMV-16E2), in lysate) METLCQRLNVCQDKILTHYENDSTDLRDHIDYWKHMRLECAIYYKAREMGFKHINHQVVPTLAVSKNKALQAIELQLTLETIYNSQYSNEKWTLQDVSLEVYLTAPTGCIKKHGYTVEVQFDGDICNTMHYTNWTHIYICEEASVTVVEGQVDYYGLYYVHEGIRTYFVQFKDDAEAYSKNKVWEVHAGGQVILCPTSVFSSNEVSSPEIIRQHLANHPAATHTKAVALGTEETQTTIQRPRSEPDTGNPCHTTKLLHRDSVDSAPILTAFNSSHKGRINCNSNTTPIVHLKGDANTLKCLRYRFKKHCTLYTAVSSTWHWTGHNVKHKSAIVTLTYDSEWQRDQFLSQVKIPKTITVSTGFMSI | 36.3
6 | HPV16 E2 Y131A mutant (natural protein, E2 protein of human papillomavirus 16, from pCMV-16E2 by site-directed mutagenesis; source: C33a cells, transfected (mutated pCMV-16E2), in lysate) METLCQRLNVCQDKILTHYENDSTDLRDHIDYWKHMRLECAIYYKAREMGFKHINHQVVPTLAVSKNKALQAIELQLTLETIYNSQYSNEKWTLQDVSLEVYLTAPTGCIKKHGYTVEVQFDGDICNTMHATNWTHIYICEEASVTVVEGQVDYYGLYYVHEGIRTYFVQFKDDAEKYSKNKVWEVHAGGQVILCPTSVFSSNEVSSPEIIRQHLANHPAATHTKAVALGTEETQTTIQRPRSEPDTGNPCHTTKLLHRDSVDSAPILTAFNSSHKGRINCNSNTTPIVHLKGDANTLKCLRYRFKKHCTLYTAVSSTWHWTGHNVKHKSAIVTLTYDSEWQRDQFLSQVKIPKTITVSTGFMSI | 5.43
